This note sets out measurements from the nanobody polyreactivity screen of Harvey et al. (2022).

A short description of the series: yeast display, Sf9 membrane polyspecificity reagent, FACS + sequencing; frameworks hold sequencing errors. In short, it runs like this:
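Galactose induction of a Saccharomyces cerevisiae BJ5465 synthetic nanobody display library ran 36–48 hours. The cells were then stained for 1 hour at 4 °C with 10% biotinylated, detergent-solubilized Sf9 membrane reagent, pulled down on streptavidin microbeads and FACS-sorted into low and high (top ~1%) gates on expression and reagent-binding fluorescence. Labels for polyreactivity follow the gate of origin.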
With “QVQLVESGGGLVQAGGRLRLSCAASGRIFWINDMGWYRQAPGKERELVAAITWSGASTYYADSVKGRFTISRDNAKNTVYLQMNSLKPEDTAVYYCAAVIADSLYYSYDYWGQGTQVTVSS”, the “polyreactivity (PSR sort gate)” value is listed as “high polyreactivity”.

“QVQLVESGGGLVQAGGRLRLSCAASGRIFWTYAMGWYRQAPGKERELVAAISSGGSTNYADSVKGRFTISRDNAKNTVYLQMNSLKPEDTAVYYCAADRWYREYDYWGQGTQVTVSS”: the “polyreactivity (PSR sort gate)” value is “low polyreactivity”.

Turning to “QVQLVESGGGLVQAGGRLRLSCAASGRIYTAYYAMGWYIQAPGKERELVASISSSGTSTYADSVKGRFTISRDNAKNTVYLQMNSLKPEDTAVYYCATRKLRTRRYDYGYWGQGTQVTVSS”, the “polyreactivity (PSR sort gate)” value is recorded as “low polyreactivity”.

Consider “QVQLVESGGGLVQAGGRLRLSCAASGRNFEPYAMGWYRQAPGKERELVAAISRSGGRTYYADSVKGRFTISRDNAKNTVYLQMNSLKPEDTAVYYCAAVGVYWYVYPHEYDYWGQGTQVTVSS”, for which the “polyreactivity (PSR sort gate)” value was “high polyreactivity”.

On to “QVQLVESGGGLVQAGGRLRLSCAASGRTFGYNAMGWYRQAPGKERELVAAITYSGGRTYYADSVKGRFTISRDNAKNTVYLQMNSLKPEDTAVYYCAALTRRVKKYDYWGQGTQVTVSS”, for which the “polyreactivity (PSR sort gate)” value is listed as “high polyreactivity”.

Regarding “QVQLVESGGGLVQAGGRLRLSCAASGRTFSKYGMGGYRQAPGKEREFVAAISSSGDSTTYADSVKGRFTISRDNAKNAVYLQMNSLKPEDTAVSYCARQTSRYTGGERAYGYWGQGTQVTVSS”, the “polyreactivity (PSR sort gate)” value is “low polyreactivity”.

As to “QVQLVESGGGLVQAGGRLRLSCAASGRTFTQYTMGWYRQAPGKERELVAAISSGGSTYYADSVKGRFTISRDNAKNTVFLQMNSLNPEDTAVYYCAARSYYAKSRYYYWGQGTQVTVSS”, the “polyreactivity (PSR sort gate)” value was “high polyreactivity”.

Take “QVQLVESGGGLVQAGGRLRLSCAASGRTFYTYAMGWYRQAPGKERELVAAITSGGSTYSADSVKGRFTISRDNAKNTVYLQMNSLKPEDTAVYYCAAEFYYWRGFDYWGQGTQVTVSS”: the “polyreactivity (PSR sort gate)” value is reported as “low polyreactivity”.

“QVQLVESGGGLVQAGGRLRLSCAASGRTILSYAMGWYRQAPAKERELVAAITGSGGRKYYADSVKGRFTISRENAKNTVYLQMNSLKPEDTAVYYCATRWIKGRKMDYWGQGTQVTVSS”: the “polyreactivity (PSR sort gate)” value was “high polyreactivity”.

In the case of “QVQLVESGGGLVQAGGRLRLSCAASGRTMGWYRQAPRKERELVAAITSGGGSTYYADSVKWRFTISRDNAKNTVYLQMNSLKPEDTAVYYCARTTIAQLHSIVAPHDYWGQGTQVNVSS”, the “polyreactivity (PSR sort gate)” value is on record as “low polyreactivity”.

“QVQLVESGGGLVQAGGRLRLSCAASGSIFERNVMGWYRQAPGKERELVAAITSGGSTNYADSVKGRFTISRDNAKNTVYLQMNSLKPEETAVYYCAADVPYRSRFYRYRLSGGDYWGQGSQVTVSS”: the “polyreactivity (PSR sort gate)” value is on record as “low polyreactivity”.

On to “QVQLVESGGGLVQAGGRLRLSCAASGSIFFDNTMGWYRQAPWKERELVASITYSGSTYADSVKGRFTISRDNAKNTVYLQMNSLKPEDTAVYYCNTESYWKVERFDYWGQGTHVTVSS”, for which the “polyreactivity (PSR sort gate)” value was “low polyreactivity”.

“QVQLVESGGGLVQAGGRLRLSCAASGSIFHLYMGWYRQAPGKERELVAVINSSGDSTYYADSVKGRFTISRDNAKNTVYLQMNSLKPEDTAVYYCNARRRGPRYLYGYWGQGSQVTVSS”: the “polyreactivity (PSR sort gate)” value is “high polyreactivity”.

Consider “QVQLVESGGGLVQAGGRLRLSCAASGSIFHYNAMGWYRQAPGKESELVAAITTSGGSTYYADSVKGRFTISLDNAKNSVYLQMNSLKPEDTAVYYCNVVTRYYTMEYWGQGTQVTVSS”, for which the “polyreactivity (PSR sort gate)” value is recorded as “high polyreactivity”.

On to “QVQLVESGGGLVQAGGRLRLSCAASGSIFPFYAMGWYRQAPGKERELVAAISDRGGSTYYADSVKGRFTISRDNAKNTVYLQMISLKPEDTAVYYCAKGGEVSQGYTDEYDYWGQGTQVTVSS”, for which the “polyreactivity (PSR sort gate)” value is given as “low polyreactivity”.

For the sequence “QVQLVESGGGLVQAGGRLRLSCAASGSIFQFYAMGWYRQAPGKERELVAAINWSGGSTYYADSVKGRFTISRDNAKNTVYLQMNSLKPEETAVYYCNALRRIGRYYKAGGYGYWGQGTQVTVSS”, the “polyreactivity (PSR sort gate)” value is “high polyreactivity”.

For the sequence “QVQLVESGGGLVQAGGRLRLSCAASGSIFRLYAMGWYRQAPGKEREFVAGITRRTGSTYYADSVKGRFTISRDNAKNTVNLQMNSLKPEDTAVYYCAKRDARATPFGYWGQGTQVTVSS”, the “polyreactivity (PSR sort gate)” value is on record as “high polyreactivity”.

On to “QVQLVESGGGLVQAGGRLRLSCAASGSIFRRYAMGWYRQAPGKERELVAAISSKGGSTYYADSVKGRFTISRDNAKNTVYLQMNSLKPEDTAVYYCNAQLVHYRFSSVFTYTIDDYWGQGTQVTVSS”, for which the “polyreactivity (PSR sort gate)” value is recorded as “high polyreactivity”.

For “QVQLVESGGGLVQAGGRLRLSCAASGSIFRWYAMGLYRQAPGKERELVAAITSGGSTYYADSVKGRFTISRDNAKNCVYLQMNSLKPEDTAVYYCNAKTYYPPFGYWGQGTQVTVSS”, the “polyreactivity (PSR sort gate)” value is reported as “low polyreactivity”.

“QVQLVESGGGLVQAGGRLRLSCAASGSIFYNYAMGWYRQAPGKERELVAAITRSGGSTYYADSVKGRFTISRDNAKNTVYLQMNSLKPEDTAVYYCAARYPFGSLGRYGYWGQGTQVTVSS”: the “polyreactivity (PSR sort gate)” value is recorded as “high polyreactivity”.

Consider “QVQLVESGGGLVQAGGRLRLSCAASGSIIISNGMGWSRQAPGKERELVATISWIGGSTYYADSVKGRFTISRDNAKNTVYLQMNSLKPEDTAVYYCAADVVLARPFEGDYWGQGTQVTVSS”, for which the “polyreactivity (PSR sort gate)” value is recorded as “low polyreactivity”.

For “QVQLVESGGGLVQAGGRLRLSCAASGSIYDDYAMGWNRQAPGKEREFVAAIDYSGGSTYYADSVKGRFTISRDNAKNTVYFQKNSLKPEDTAVYYCAKEAITRTFQYRHDYWGQGTQVTVSS”, the “polyreactivity (PSR sort gate)” value is “low polyreactivity”.

Turning to “QVQLVESGGGLVQAGGRLRLSCAASGSTFGANAMGWYRQAPGKEREFVAAISRSGVRTYYADSVKGRFTISRDNAKNTVFLQMNSLKPEDTAVYYCAADGYWWTDTRYDYCGQGTQVTVSS”, the “polyreactivity (PSR sort gate)” value is given as “low polyreactivity”.

With “QVQLVESGGGLVQAGGRLRLSCAASGSTFPKYAMGWYRQAPGKERELVASISVTTGSTYYADSVKGRFTISRDNAKNTVYLQMNSLKPEDTAVYYCAKRTYSRKFRGAYNYWGQGTQVTVSS”, the “polyreactivity (PSR sort gate)” value is “high polyreactivity”.

On to “QVQLVESGGGLVQAGGRLRLSCAASGSTFQQYGMGWYRQAPGKERELVAAISGGVSTYYADSLKGLFTISRDHAKNTVYLQMYSLKPEDTAVYYCNADTSYSEWGSWYYEYDYWGQGTQVTVSS”, for which the “polyreactivity (PSR sort gate)” value is recorded as “low polyreactivity”.

For the sequence “QVQLVESGGGLVQAGGRLRLSCAASGSTFRYYAMGWYRQAPWKERELVAAISSTGTRTYYADSVKGRFTISRDNAKNTVYLQMNSLKPEDTAVSYCAADYVRYATRYDYWGQGTQVTVSS”, the “polyreactivity (PSR sort gate)” value is “high polyreactivity”.

In the case of “QVQLVESGGGLVQAGGRLRLSCAASGSTFSYYAMGWYRQAPGKEREMVAAISRTGGSTYYADSVKGRCTISRDNAKNTVYLQMNSLKAEDTAFYYCNARAPVGTFDYDYWGQGTQVTVSS”, the “polyreactivity (PSR sort gate)” value is “low polyreactivity”.

Regarding “QVQLVESGGGLVQAGGRLRLSCAASGSTFTDYAMGWYRQAPRKERELVASITSGGRTNYADSVKGRFTITRDNAKNTVYLQMNSLKPEDTAVYYCAADYSVPTSQAYDYWGQGTQVTVSS”, the “polyreactivity (PSR sort gate)” value is “low polyreactivity”.

Regarding “QVQLVESGGGLVQAGGRLRLSCAASGSTFYNYAMGWYRQAPGKERELVASIPWNGGSTYYADSVKGRFTISRDNAKNTVYLQMNSLKPEDTAVYYCAADWTWTYPYDYWGQGTQVTVSS”, the “polyreactivity (PSR sort gate)” value was “low polyreactivity”.

Consider “QVQLVESGGGLVQAGGRLRLSCAASGSTFYSNAMGWYRQAPGKERELVASIRFSGVITTYADSVKGRFTISRDNAKNTVYLQMNSLKPEDTAVYYCDAGYLSTTAYDYWGQGTQVTVSS”, for which the “polyreactivity (PSR sort gate)” value is recorded as “low polyreactivity”.

Regarding “QVQLVESGGGLVQAGGRLRLSCAASGSTIRLYAKGWYRQAPGKERELVAAISVSGGSTHYADSVKGRFTISRDNAKNTVYLQMNSLKPEDTAVYYCNAAGNPVSRYHYDYWGQGTQVTVSS”, the “polyreactivity (PSR sort gate)” value was “high polyreactivity”.

For the sequence “QVQLVESGGGLVQAGGRLRLSCAASGTIFDFYAMGWYRQAPGKERELVATITASGGSTYYADSVKGRFTISRDNAKNTVYLQMKSLKPEDTAVYYCAAVGPHWYGQGWALYRFEYWGQGTQVTVSS”, the “polyreactivity (PSR sort gate)” value is given as “low polyreactivity”.

“QVQLVESGGGLVQAGGRLRLSCAASGYIFSYYAMAWYRQAPGKERELVASITSSGGSTYYADSVKGRFTISRDNAKNTVYLQMNSLKPEVTAVSYCAAYSLYGYDYWGQGTQVTVSS”: the “polyreactivity (PSR sort gate)” value is reported as “low polyreactivity”.

Turning to “QVQLVESGGGLVQAGGRLRLSCAASGYTFTHYAMGLYRQAPVKESELVASIRNSGSRTYYADSVKGRFTISPDNAKNTVYLQLNSLKPEDTAVYYCAAKTTTPYRYIYYYWGQGTQVTVSS”, the “polyreactivity (PSR sort gate)” value is “high polyreactivity”.

As for “QVQLVESGGGLVQAGGRLRLSCAASLYIYGGYGMGWYRKAPGKERELVAVITSSVSTDYADSVKGSFTISRDNAKNTVYLQMKSLKPEDTAVYYSSADFLWYIYNIGTSLEFEYWGQGTQVTVSS”, the “polyreactivity (PSR sort gate)” value is given as “low polyreactivity”.

In the case of “QVQLVESGGGLVQAGGRLRLSCAASVRILGKYAMGWYRQAPGKERELVAAIRLRGGSTYYADSVKGRFTISRDNAKNTVYLQMNSLKPEDTAVYYCAARYWDRSQAYYYWGQGTQVTVSS”, the “polyreactivity (PSR sort gate)” value is on record as “high polyreactivity”.

“QVQLVESGGGLVQAGGRLRLSCAATGSTFEVYAMGWYRQAPGKERELVAVINVSDGSTYYADSVKGRFTISRDNAKNTVYLQMNSLKPEDTAVYLCAAYLYNRPYQLTGYYDGYGYWGQGTQVTVSS”: the “polyreactivity (PSR sort gate)” value was “low polyreactivity”.

For “QVQLVESGGGLVQAGGRLRLSCADSGIIFRAYTIGWYRQATGKERELVAGITSGGSTYYADSVKGRFTISRDNAKNTVYLQMNSLKPEDTAVYYCATYYGRWTPIPYEYWGQGTQVTVSS”, the “polyreactivity (PSR sort gate)” value is recorded as “high polyreactivity”.

On to “QVQLVESGGGLVQAGGRLRLSCAPSGGIFNPNVMGGYRQSPGKETELVASITGRGGNTYYADSVKGRFTISRDNAKNTVYLQMNSLKPEDTAVYYCAAAIPHHSRVYYWGQGPQVTVSS”, for which the “polyreactivity (PSR sort gate)” value is recorded as “low polyreactivity”.

Take “QVQLVESGGGLVQAGGRLRLSCGASGIIFVYYTMGWDRQAPGKERELVAAITSGGSTYYADSVKGRFTISRDNAKNTVFLQINSLKPEDTAVYYCAAVGRPPYAGDRGFRGQGTQVTVSS”: the “polyreactivity (PSR sort gate)” value is reported as “high polyreactivity”.

As to “QVQLVESGGGLVQAGGRLRLSCTASGIIFGTYAMGWYRQAPGKERELVAAISSSGVSTYYADSVKGRFTISRDNAKNTVYLQMNSLKPEDTAVYYCAAPLHYGYYYWGQGTQVTVSS”, the “polyreactivity (PSR sort gate)” value is on record as “high polyreactivity”.
